In FireProtDB (doi:10.1093/protein/gzl019):

B1: Cold shock protein CspB, P41016 (parent)
chain: MQRGKVKWFNNEKGYGFIEVEGGSDVFVHFTAIQGEGFKTLEEGQEVSFEIVQGNRGPQAANVVKL

Variants of: B1
Conditions: Bacillus caldolyticus, pH 7, Thermal, Na cacodylate/HCl 0.1 M, reversible: Yes, structure 1C9O, whole UniProt chain shown

Row | Variant | ddG of mutation (higher = less stable) (75 °C, CD, NaCl 0-2 M) | heat capacity change of unfolding (75 °C, CD, NaCl 0-2 M) | ddG of mutation (higher = less stable) (75 °C, CD, NaCl 2 M) | heat capacity change of unfolding (75 °C, CD, NaCl 2 M) | ddG of mutation (higher = less stable) (75 °C, CD) | heat capacity change of unfolding (75 °C, CD) | Tm (CD) | change of melting temperature, mutant - wild type (higher = more stable) (CD) | heat capacity change of unfolding (CD) | unfolding enthalpy (van 't Hoff) (CD) | ddG of mutation (higher = less stable) (75 °C, DSC, NaCl 0-2 M) | heat capacity change of unfolding (75 °C, DSC, NaCl 0-2 M) | ddG of mutation (higher = less stable) (75 °C, DSC, NaCl 2 M) | heat capacity change of unfolding (75 °C, DSC, NaCl 2 M) | ddG of mutation (higher = less stable) (75 °C, DSC) | heat capacity change of unfolding (75 °C, DSC) | Tm (DSC) | change of melting temperature, mutant - wild type (higher = more stable) (DSC) | heat capacity change of unfolding (DSC) | unfolding enthalpy (calorimetric) (DSC)
1 | E12K | 0.1 kcal/mol | 0.96 kcal/mol/K | 0.29 kcal/mol | 0.96 kcal/mol/K | 0.43 kcal/mol | 0.96 kcal/mol/K | – | – | – | – | – | – | – | – | – | – | – | – | – | –
2 | E21K | 0.43 kcal/mol | 0.96 kcal/mol/K | -0.17 kcal/mol | 0.96 kcal/mol/K | 0.26 kcal/mol | 0.96 kcal/mol/K | 75.4 °C | -1.5 °C | 0.96 kcal/mol/K | 49 kcal/mol | – | – | – | – | – | – | – | – | – | –
3 | E36K | 0.98 kcal/mol | 0.96 kcal/mol/K | -0.79 kcal/mol | 0.96 kcal/mol/K | 0.19 kcal/mol | 0.96 kcal/mol/K | 76 °C | -0.9 °C | 0.96 kcal/mol/K | 45.6 kcal/mol | – | – | – | – | – | – | – | – | – | –
4 | E50K | 0.76 kcal/mol | 0.96 kcal/mol/K | -0.26 kcal/mol | 0.96 kcal/mol/K | 0.5 kcal/mol | 0.96 kcal/mol/K | 73.5 °C | -3.4 °C | 0.96 kcal/mol/K | 43.3 kcal/mol | – | – | – | – | – | – | – | – | – | –
5 | N55K | 0.29 kcal/mol | 0.96 kcal/mol/K | -0.19 kcal/mol | 0.96 kcal/mol/K | -0.1 kcal/mol | 0.96 kcal/mol/K | 77.7 °C | 0.8 °C | 0.96 kcal/mol/K | 55.2 kcal/mol | – | – | – | – | – | – | – | – | – | –
6 | R56E | -0.53 kcal/mol | 0.96 kcal/mol/K | -0.24 kcal/mol | 0.96 kcal/mol/K | -0.76 kcal/mol | 0.96 kcal/mol/K | – | – | – | – | – | – | – | – | – | – | – | – | – | –
7 | H29E | – | – | – | – | – | – | – | – | – | – | 0.29 kcal/mol | 0.96 kcal/mol/K | 0.48 kcal/mol | 0.96 kcal/mol/K | 0.76 kcal/mol | 0.96 kcal/mol/K | – | – | – | –
8 | E46K | – | – | – | – | – | – | – | – | – | – | 0.43 kcal/mol | 0.96 kcal/mol/K | 0.22 kcal/mol | 0.96 kcal/mol/K | 0.65 kcal/mol | 0.96 kcal/mol/K | 74 °C | -2.9 °C | 0.96 kcal/mol/K | 114 kcal/mol
